Each block holds one molecule with its values, some of them ahead of it.
Legend:
[1] = molecular target: taxol-stabilized microtubules; test: single-molecule TIRF binding density on microtubules
[2] = molecular target: Dyn^WB-M, monomeric S. cerevisiae dynein construct with a Walker B mutation in AAA3 (S. cerevisiae); test: cryo-EM structure
[3] = molecular target: Dyn^wt-M, monomeric S. cerevisiae cytoplasmic dynein construct lacking GST, wild type AAA3 (S. cerevisiae) (UniProt P36022); test: cryo-EM structure
Dyn^wt-M, monomeric S. cerevisiae cytoplasmic dynein construct lacking GST, wild type AAA3 (S. cerevisiae), sequence (P36022 whole entry): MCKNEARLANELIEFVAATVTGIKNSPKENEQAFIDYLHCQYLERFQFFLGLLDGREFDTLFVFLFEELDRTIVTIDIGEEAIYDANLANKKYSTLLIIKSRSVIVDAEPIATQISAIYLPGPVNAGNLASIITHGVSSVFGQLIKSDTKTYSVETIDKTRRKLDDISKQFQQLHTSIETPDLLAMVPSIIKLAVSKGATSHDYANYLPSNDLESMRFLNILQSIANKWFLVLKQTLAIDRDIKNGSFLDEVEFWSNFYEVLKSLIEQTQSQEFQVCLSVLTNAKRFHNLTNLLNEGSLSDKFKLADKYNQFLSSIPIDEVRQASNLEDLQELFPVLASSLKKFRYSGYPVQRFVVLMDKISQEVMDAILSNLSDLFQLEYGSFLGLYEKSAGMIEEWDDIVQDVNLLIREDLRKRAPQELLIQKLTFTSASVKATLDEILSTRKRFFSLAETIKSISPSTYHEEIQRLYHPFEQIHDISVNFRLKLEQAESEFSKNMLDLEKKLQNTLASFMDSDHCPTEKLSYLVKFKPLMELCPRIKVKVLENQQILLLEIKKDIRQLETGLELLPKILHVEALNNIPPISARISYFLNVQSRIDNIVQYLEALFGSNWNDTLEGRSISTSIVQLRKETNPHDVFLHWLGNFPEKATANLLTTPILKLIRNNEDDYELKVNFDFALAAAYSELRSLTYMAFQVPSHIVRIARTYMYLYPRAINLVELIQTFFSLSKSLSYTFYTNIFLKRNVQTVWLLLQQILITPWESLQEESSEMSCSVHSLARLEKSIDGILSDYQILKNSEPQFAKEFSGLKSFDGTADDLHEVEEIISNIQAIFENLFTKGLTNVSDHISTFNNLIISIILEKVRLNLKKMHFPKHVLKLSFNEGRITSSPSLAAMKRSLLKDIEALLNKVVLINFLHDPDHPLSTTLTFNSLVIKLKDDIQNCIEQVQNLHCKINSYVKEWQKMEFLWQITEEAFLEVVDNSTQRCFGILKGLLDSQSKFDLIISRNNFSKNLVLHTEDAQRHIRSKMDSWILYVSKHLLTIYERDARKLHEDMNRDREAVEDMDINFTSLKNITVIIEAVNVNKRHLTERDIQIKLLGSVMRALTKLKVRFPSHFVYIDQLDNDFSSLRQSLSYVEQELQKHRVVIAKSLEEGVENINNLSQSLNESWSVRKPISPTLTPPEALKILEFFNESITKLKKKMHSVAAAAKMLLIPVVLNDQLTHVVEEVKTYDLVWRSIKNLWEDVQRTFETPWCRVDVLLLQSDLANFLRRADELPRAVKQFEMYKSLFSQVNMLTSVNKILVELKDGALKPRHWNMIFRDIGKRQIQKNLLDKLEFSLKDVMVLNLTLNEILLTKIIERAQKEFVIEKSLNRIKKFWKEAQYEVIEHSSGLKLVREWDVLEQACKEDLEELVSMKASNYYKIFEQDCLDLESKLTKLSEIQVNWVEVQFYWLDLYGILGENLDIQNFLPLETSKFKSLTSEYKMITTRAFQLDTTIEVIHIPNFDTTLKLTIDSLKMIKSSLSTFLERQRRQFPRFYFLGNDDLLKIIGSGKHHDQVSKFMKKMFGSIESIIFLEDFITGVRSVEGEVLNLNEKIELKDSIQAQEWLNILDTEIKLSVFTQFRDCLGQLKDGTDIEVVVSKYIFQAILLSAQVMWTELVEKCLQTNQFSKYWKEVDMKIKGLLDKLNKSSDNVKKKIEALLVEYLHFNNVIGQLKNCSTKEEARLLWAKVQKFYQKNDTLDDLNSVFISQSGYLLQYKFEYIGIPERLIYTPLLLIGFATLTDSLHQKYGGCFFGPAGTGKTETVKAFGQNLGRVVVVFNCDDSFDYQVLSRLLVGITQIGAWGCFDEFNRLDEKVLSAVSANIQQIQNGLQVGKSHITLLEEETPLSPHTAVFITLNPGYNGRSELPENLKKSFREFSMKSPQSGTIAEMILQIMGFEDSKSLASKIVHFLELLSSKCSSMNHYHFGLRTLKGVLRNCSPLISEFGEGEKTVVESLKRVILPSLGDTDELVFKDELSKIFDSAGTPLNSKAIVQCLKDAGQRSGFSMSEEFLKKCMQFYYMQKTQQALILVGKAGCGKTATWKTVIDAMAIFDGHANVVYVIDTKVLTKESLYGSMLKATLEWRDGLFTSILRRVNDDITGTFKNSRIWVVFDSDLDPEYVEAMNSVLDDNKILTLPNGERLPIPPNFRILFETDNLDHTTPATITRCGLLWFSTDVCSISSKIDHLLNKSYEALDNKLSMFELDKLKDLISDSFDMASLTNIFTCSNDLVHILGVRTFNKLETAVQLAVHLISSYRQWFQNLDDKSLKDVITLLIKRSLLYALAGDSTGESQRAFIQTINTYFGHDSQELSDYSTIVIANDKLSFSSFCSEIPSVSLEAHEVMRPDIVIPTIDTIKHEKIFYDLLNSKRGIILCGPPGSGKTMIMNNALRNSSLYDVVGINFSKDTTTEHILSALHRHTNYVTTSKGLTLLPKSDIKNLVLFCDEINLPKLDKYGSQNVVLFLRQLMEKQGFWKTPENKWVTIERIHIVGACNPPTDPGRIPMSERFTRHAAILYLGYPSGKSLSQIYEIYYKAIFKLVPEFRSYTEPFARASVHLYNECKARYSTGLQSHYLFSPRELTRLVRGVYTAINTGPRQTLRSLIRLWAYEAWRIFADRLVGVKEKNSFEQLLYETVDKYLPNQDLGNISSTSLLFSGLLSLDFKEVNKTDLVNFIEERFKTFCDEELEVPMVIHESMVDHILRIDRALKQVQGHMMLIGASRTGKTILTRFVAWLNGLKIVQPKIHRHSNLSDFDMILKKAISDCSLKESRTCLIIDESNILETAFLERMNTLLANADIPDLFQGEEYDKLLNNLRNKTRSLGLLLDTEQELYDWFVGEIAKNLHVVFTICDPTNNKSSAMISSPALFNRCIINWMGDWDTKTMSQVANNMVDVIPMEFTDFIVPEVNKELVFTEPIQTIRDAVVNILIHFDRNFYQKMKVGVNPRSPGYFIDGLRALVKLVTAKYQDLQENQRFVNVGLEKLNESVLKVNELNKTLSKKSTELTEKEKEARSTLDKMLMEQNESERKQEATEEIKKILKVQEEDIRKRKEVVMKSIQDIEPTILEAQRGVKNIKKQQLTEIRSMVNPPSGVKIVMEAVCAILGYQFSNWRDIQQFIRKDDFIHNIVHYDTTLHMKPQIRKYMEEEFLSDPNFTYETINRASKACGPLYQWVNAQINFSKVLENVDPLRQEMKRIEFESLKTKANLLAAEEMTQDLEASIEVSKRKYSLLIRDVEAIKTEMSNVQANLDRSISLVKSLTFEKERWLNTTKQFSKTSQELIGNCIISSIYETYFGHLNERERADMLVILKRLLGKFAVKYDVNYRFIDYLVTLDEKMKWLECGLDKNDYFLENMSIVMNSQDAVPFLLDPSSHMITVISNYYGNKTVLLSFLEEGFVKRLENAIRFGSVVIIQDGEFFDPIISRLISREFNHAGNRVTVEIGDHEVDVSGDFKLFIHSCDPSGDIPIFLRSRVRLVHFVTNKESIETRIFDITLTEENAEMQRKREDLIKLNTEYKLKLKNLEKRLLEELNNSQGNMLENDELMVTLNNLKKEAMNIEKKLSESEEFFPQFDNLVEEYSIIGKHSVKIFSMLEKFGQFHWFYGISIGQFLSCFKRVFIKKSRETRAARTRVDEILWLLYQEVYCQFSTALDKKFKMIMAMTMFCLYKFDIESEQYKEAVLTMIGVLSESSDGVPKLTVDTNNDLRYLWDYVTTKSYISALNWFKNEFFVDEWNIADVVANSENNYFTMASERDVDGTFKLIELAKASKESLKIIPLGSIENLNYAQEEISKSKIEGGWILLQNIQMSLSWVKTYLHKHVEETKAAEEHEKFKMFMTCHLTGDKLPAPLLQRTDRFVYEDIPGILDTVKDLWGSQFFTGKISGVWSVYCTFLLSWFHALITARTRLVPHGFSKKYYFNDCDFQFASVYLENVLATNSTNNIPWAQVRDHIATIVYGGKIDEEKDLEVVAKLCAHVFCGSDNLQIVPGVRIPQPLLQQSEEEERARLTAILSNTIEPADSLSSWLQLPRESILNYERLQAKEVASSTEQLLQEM

cryo-EM structure = molecular target: the molecule itself; test: cryo-EM structure

decrease of binding density on MTs with 300 nM Lis1 against no Lis1 [1]: 42%
Molecule: Dyn^WB, GST-dimerized S. cerevisiae dynein construct with a Walker B mutation in AAA3 (domain or fragment)

increase of binding density on MTs with 300 nM Lis1 against no Lis1 [1]: 62%
Molecule: Dyn^WA, GST-dimerized S. cerevisiae dynein construct with a Walker A mutation in AAA3 (domain or fragment)

stoichiometry N (Lis1 β-propellers per dynein) [2]: 2
stoichiometry N (Lis1 β-propeller per dynein) [3]: 1
B1: Lis1 (S. cerevisiae), dimer (natural protein, UniProt P39946 1-494, looked up)
chain: MTNWQQQLPLTDTQKNELDKSVLRYLNWNYKQTVRHEHAQDYESVRHAIVTLSGFLLQESVDRQEFISNNDTSNESMVDIDELLLPKKWNSIVRLQKKIIELEQNTETLVSQIKDLNTQVSELAQFKPTTSNGTSAHNVLKWIPRNLPSCLINVESSVTSVKLHPNLPIVFVATDHGKLYAFDLFNYTIPLASLQSHTKAITSMDVLFTNYTNSSKKNYLVIVTASKDLQIHVFKWVSEECKFQQIRSLLGHEHIVSAVKIWQKNNDVHIASCSRDQTVKIWDFHNGWSLKTFQPHSQWVRSIDVLGDYIISGSHDTTLRLTHWPSGNGLSVGTGHEFPIEKVKFIHFIEDSPEIRFRTPSTDRYKNWGMQYCVSASRDRTIKIWEIPLPTLMAHRAPIPNPTDSNFRCVLTLKGHLSWVRDISIRGQYLFSCADDKSVRCWDLNTGQCLHVWEKLHTGFVNCLDLDVDFDSNVTPRQMMVTGGLDCKSNVFMR
binding result (cryo-EM structure): binds
